Test results: patent publication US20160083466A1 (Regeneron, published 2016)

T1: human IL-25 receptor (IL-17RA/IL-17RB) on HEK293/NFκB-luc/hIL17RA/hIL17RB/hAct1 cells (human, UniProt Q96F46 33-866; Q9NRM6 18-502)
T1 sequence (looked up) 1: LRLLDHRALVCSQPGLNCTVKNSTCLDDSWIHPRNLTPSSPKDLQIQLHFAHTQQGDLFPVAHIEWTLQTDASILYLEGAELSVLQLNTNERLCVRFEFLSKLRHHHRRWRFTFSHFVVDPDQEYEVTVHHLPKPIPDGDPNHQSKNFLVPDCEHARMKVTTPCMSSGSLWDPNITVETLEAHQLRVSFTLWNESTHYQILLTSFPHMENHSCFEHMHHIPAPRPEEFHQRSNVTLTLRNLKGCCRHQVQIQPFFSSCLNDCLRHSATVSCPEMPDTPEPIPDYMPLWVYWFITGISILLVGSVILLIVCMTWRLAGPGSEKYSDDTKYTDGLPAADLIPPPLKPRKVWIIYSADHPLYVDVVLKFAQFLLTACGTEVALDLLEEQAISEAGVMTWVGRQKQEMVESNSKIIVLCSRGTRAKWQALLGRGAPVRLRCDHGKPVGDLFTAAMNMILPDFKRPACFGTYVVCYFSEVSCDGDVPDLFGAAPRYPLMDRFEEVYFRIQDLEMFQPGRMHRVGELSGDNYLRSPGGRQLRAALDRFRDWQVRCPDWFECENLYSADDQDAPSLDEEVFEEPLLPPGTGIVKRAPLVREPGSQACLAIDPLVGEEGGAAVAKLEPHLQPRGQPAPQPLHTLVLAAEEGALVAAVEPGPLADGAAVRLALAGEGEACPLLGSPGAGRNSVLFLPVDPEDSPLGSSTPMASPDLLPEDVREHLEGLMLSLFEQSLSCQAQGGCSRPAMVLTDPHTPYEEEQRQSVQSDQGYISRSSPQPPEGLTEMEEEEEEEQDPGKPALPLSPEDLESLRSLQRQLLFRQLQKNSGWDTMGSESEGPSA
T1 sequence (looked up) 2: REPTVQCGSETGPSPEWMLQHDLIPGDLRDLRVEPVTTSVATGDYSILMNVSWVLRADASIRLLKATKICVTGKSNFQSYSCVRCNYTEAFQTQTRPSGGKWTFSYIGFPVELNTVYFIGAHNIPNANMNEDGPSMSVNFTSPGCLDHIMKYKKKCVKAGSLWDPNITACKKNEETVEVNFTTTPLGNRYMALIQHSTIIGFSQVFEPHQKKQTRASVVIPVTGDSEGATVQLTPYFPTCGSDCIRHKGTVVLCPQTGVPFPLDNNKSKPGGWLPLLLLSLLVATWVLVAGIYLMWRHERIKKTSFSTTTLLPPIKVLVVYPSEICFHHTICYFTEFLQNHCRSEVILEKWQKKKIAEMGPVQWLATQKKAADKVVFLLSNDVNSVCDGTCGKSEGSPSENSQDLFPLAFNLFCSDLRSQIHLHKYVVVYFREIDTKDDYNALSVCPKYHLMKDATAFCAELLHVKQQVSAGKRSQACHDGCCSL

B1: mouse IL-25 expressed with a C-terminal myc-myc-hexahistidine tag (ligand)
chain: VSLRIQEGCSHLPSCCPSKEQEPPEEWLKWSSASVSPPEPLSHTHHAESCRASKDGPLNSRAISPWSYELDRDLNRVPQDLYHARCLCPHCVSLQTGSHMDPLGNSVPLYHNQTVFYRRPCHGEEGTHRRYCLERRLYRVSLACVCVRPRVMAEQKLISEEDLGGEQKLISEEDLHHHHHH
B2: monkey IL-25 expressed with a C-terminal myc-myc-hexahistidine tag (ligand)
chain: YSHWPSCCPSKGYPSEELLRWSTVPVPPLKPASLDFHSVSCRASEDGPLNSRAISPWRYELDRDLNRLPQDLYHARCLCPHCVSLQTGSHMDPRGNSELLYHNQTVFYRRPCHGKKGNHKGYCLERRLYRVSLACVCVRPRVMGEQKLISEEDLGGEQKLISEEDLHHHHHH
B3: human IL-25 expressed with a C-terminal myc-myc-hexahistidine tag (ligand)
chain: YSHWPSCCPSKGQDTSEELLRWSTVPVPPLEPARPNRHPESCRASEDGPLNSRAISPWRYELDRDLNRLPQDLYHARCLCPHCVSLQTGSHMDPRGNSELLYHNQTVFYRRPCHGEKGTHKGYCLERRLYRVSLACVCVRPRVMGEQKLISEEDLGGEQKLISEEDLHHHHHH

Molecular target: T1, human IL-25 receptor (IL-17RA/IL-17RB) …
Experiment: cell-based or functional assay

Binder	EC50, NFκB-luciferase activation of HEK293/NFκB-luc/hIL17RA/hIL17RB/hAct1 cells [pM]	EC50, NFκB-luciferase activation of HEK293/NFκB-luc/hIL17RA/hIL17RB/hAct1 cells (first assay day) [pM]	EC50, NFκB-luciferase activation of HEK293/NFκB-luc/hIL17RA/hIL17RB/hAct1 cells (second assay day) [pM]
B1	8.4		
B2	19		
B3		2.9	16
